Assay results as given in publication PMC3660260.

Experiments:
[1] = target: HCV envelope glycoprotein E2 (in lysate of HCV-infected Huh7.5 cells) (hepatitis C virus (strain not stated)) (UniProt Q99IB8)
[2] = target: HCV envelope glycoprotein E2 (in lysate of HCV-infected Huh7.5 cells) (hepatitis C virus (strain not stated)) (UniProt Q99IB8); remark: listed apart in the source

UniProt Q99IB8, sequence (Q99IB8 384-750): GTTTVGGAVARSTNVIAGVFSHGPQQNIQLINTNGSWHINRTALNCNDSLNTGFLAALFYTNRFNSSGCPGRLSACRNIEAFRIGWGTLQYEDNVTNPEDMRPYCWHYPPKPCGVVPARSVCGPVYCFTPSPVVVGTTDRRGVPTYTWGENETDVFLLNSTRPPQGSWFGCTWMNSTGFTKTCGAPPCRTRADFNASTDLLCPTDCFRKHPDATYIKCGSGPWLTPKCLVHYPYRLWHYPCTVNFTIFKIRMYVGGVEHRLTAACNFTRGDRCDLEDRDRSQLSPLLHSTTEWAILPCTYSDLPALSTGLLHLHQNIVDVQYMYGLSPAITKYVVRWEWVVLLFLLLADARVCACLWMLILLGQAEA

Substance	EC50 for inhibition of HCV JFH-1 (genotype 2a) in the HCVcc full-replication assay in Huh7.5.1 cells (HCV core protein in supernatant) [1] [nM]	EC50 for inhibition of replication of JFH-1 (genotype 2a) HCVcc in Huh7.5.1 cells [2] [nM]	EC50 for inhibition of replication of the J6/JFH-1 HCVcc chimera (structural genes of genotype 2a J6) in Huh7.5.1 cells [2] [nM]	EC50 for inhibition of replication of the TH/JFH-1 HCVcc chimera (structural genes of genotype 1b TH) in Huh7.5.1 cells [2] [nM]
griffithsin (from UniProt P84801 1-121) (natural protein)	0.4	0.3	14	2.2
scytovirin (from UniProt P86041 1-95) (natural protein)	16.9	3.2	50.8	57.5
